Assay: Formulation stability of lyophilisate form (HPLC content and purity, pH) on storage
Assay type: physicochemical
Description: Stabilities measurements were performed by means of High Performance Liquid Chromatographic (HPLC) method. The HPLC system a HPLC Waters Alliance 2695 completed by detection system 2487 Dual λ Absorbance Detector, the column used was a C18, 250×4.6 mm. All details concerning instrumental conditions are gathered in table 6. Elution conditions are gathered in table 7. Two pharmaceutical forms were studied in parallel for stability assays over six months at +5° C. and +25° C./60% RH (relative humidity) and +40° C./75% RH. Measurements were carried out in parallel with (in either wfi, or 5% dextrose as solvent) and a lyophilisate (drug substance on its own) or as second variant of formulations with an additional bulking agents such as mannitol, glycine and trehalose) in WFI. […] C (% initial) represents the content expressed in percentage at the moment T with regard to the content at the moment Tzero. […] In table 7 are gathered the elution program, the ratio of each eluant (mobile phase) used for measurement of formulation stabilities. […] Thereafter 20 ml of acetic acid 0.1 N were added under shaking by means of a vortex and if required additionally dissolved in ultrasonic bath in order to obtain a total dissolution. Weight of brut BI[…] 760 was calculated by means of the following relation: […]

SMILES: CCCN1CC(CSCC(=O)N[C@H](CCCCNC(=O)CSC[C@@H]2C[C@@H]3c4cccc5[nH]cc(c45)C[C@H]3N(CCC)C2)C(=O)N[C@H]2CSSC[C@@H](C(=O)N[C@H](C(N)=O)[C@@H](C)O)NC(=O)[C@H](CC)NC(=O)[C@H](CCCCN)NC(=O)[C@@H](Cc3c[nH]c4ccccc34)NC(=O)[C@H](Cc3ccc(O)cc3)NC2=O)C[C@@H]2c3cccc4[nH]cc(c34)C[C@H]21 (stereo partly drawn) [BIM23A760, Dop2-DLys(Dop2)-c(Cys-Tyr-DTrp-Lys-Abu-Cys)-Thr-NH2]
- C (% initial) (+5° C., T3 Months): 103.6% initial
- P (% a/a) (+5° C., T3 Months): 96.10% a/a
- pH (+5° C., T3 Months): 6.64
- C (% initial) (+5° C., T6 Months): 73.0% initial
- P (% a/a) (+5° C., T6 Months): 96.80% a/a
- pH (+5° C., T6 Months): 5.81
- C (% initial) (+25° C./60% RH, T0): 100% initial
- P (% a/a) (+25° C./60% RH, T0): 95.90% a/a
- pH (+25° C./60% RH, T0): 6.8
- C (% initial) (+25° C./60% RH, T3 Months): 98.8% initial
- P (% a/a) (+25° C./60% RH, T3 Months): 93.70% a/a
- pH (+25° C./60% RH, T6 Months): 6.63
- C (% initial) (+40° C./75% RH, T1 Month): 52.0% initial
- P (% a/a) (+40° C./75% RH, T1 Month): 95.9% a/a
- C (% initial) (+40° C./75% RH, T3 Months): 29.0% initial
- P (% a/a) (+40° C./75% RH, T3 Months): 95.5% a/a
- pH (+40° C./75% RH, T3 Months): 5.60
- pH (+40° C./75% RH, T6 Months): 5.62

— patent US20110034399A1, “Liquid and Freeze Dried Formulations” (IPSEN PHARMA S.A.S., priority 2008, published 2011)
